The term Kd denotes the concentration at which binding is half-saturated. A lower Kd goes with tighter binding.

Among the data in paper PMC11365994 (Communications Biology, 2024) are Kd values, retold here.

This assay has as its target T1, falcilysin E132Q single mutant (residues 59-1193) (Plasmodium falciparum, UniProt Q76NL8 59-1193, E132Q).
T1 sequence (looked up): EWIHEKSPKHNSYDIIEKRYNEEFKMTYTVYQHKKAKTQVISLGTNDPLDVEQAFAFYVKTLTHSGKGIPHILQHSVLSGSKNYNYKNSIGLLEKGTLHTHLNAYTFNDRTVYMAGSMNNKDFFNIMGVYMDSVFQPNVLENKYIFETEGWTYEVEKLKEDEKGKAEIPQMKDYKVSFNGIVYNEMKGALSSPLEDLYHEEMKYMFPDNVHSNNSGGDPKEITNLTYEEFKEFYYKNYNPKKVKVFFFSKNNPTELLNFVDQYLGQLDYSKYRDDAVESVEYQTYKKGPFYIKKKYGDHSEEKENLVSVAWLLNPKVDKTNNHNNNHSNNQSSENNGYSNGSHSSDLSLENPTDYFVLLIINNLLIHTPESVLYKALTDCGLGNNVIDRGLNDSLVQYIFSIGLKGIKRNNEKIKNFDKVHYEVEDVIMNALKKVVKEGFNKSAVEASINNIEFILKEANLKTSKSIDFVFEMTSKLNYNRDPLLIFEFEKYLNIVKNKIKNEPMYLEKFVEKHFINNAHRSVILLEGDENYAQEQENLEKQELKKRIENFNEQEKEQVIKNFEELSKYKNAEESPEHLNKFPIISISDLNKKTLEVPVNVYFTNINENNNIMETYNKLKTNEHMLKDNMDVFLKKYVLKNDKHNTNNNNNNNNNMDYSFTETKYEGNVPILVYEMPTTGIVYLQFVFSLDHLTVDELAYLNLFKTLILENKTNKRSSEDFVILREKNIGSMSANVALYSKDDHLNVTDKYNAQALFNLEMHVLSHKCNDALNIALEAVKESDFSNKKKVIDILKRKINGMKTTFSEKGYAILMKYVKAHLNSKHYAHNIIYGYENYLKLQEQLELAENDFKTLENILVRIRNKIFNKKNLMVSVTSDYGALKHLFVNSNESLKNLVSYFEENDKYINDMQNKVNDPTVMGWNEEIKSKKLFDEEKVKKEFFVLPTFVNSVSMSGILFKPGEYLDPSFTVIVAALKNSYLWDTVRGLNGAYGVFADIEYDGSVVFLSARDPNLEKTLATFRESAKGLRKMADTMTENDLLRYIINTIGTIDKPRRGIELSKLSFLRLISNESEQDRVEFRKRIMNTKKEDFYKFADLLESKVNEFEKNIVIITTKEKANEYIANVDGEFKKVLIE
Description: ITC. (ITC needs no label: the signal is the heat of the interaction.)

LSFPTTKTYFPHFD [hemoglobin α chain peptide (residues L34 to D47)] registered a Kd of 933 nM.
The value for VVYPWTQRFFESFGD [hemoglobin β chain peptide (residues V33 to D47)] was 499 nM.
